Results reported in patent publication US6512161.

Tests used:
[1] = target: either human or rabbit apoB; assay: densitometry of non-reducing anti-apo(a) immunoblots, apoB/apo(a) transgenic rabbit plasma (n=3)
[2] = target: rabbit apolipoprotein B-100 (rabbit) (UniProt P17165); assay: densitometry of non-reducing anti-apo(a) immunoblots, apo(a) transgenic rabbit plasma (n=3)
UniProt P17165, sequence (P17165 whole entry): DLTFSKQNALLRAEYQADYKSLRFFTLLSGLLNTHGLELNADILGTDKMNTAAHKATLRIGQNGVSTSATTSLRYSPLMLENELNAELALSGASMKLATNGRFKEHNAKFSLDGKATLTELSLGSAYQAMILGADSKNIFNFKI

percent of apo(a) covalently bound [1] | percent of apo(a) migrating as free apo(a) [1] | percent of apo(a) bound [2] | percent of apo(a) free [2] | Substance
80% | 20% |  |  | human apolipoprotein(a) (from UniProt P08519 20-2040)
 |  | 20% | 80% | human apolipoprotein(a), P08519 20-2040
